The text below walks through data of publication PMC5234717 (Journal of Lipid Research, 2016).

For the assay, the target named is Burkholderia pseudomallei K96243 sphingosine-1-phosphate lyase S1PL2021 (shorter ORF of BPSS2021, st (Burkholderia pseudomallei K96243)). Nature of the assay: SEC. In general terms: Size exclusion chromatography separates by hydrodynamic size, large species first.

The stoichiometry N is a count of units in the complex or per binding partner. Turning to “Burkholderia pseudomallei K96243 sphingosine-1-phosphate lyase S1PL2021 (shorter ORF of BPSS2021, st (enzyme)”, the stoichiometry N was determined as 2.
